Data taken from the supplement of paper PMC10567573.

B1: PPEF2 (parent)
chain: DHSGFISLDEFRQTWKLFSSHMNI
B2: NCF4 (parent)
chain: FGPDSKSSALACTLPTLPAKVYVG

Variants of: B1
Test: protein stability index of a GFP-peptide fusion (GPS, HEK-293T) (PSI 1-6); higher = more stable
Settings: c terminus: a fixed tail appended
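Further: lentivirally expressed fusions sorted by FACS into six bins by GFP to DsRed ratio, PSI derived from sequencing read proportions per bin multiplied by bin number.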

Protein stability index: each site, then its substitutions
Q13: W 2.52 | E 2.36 | D 1.61
W15: C 2.39 | R 1.62 | V 2.1 | K 2.36 | P 1.81 | A 1.67 | M 2.79 | G 1.84 | S 1.81 | T 2.58 | L 1.88 | Q 2.25 | F 2.07 | E 1.96 | Y 2.15 | I 1.77 | D 2.3 | N 2.06 | H 1.76
S7: N 2.06 | P 1.44 | W 2.08 | M 2.3 | C 2.37 | Y 1.97 | L 1.83 | Q 1.79 | R 2.1 | D 1.47 | E 1.86 | F 2.52 | A 2.06 | I 2.44 | H 1.83 | G 2.95 | T 2.04 | K 1.69
S3: V 1.46 | T 2.62 | R 2.58 | G 1.97 | Y 2.27 | D 2 | I 1.84 | L 2.07 | A 1.92 | K 2.47 | F 2.23 | Q 1.85 | P 1.91 | W 1.8 | C 1.81 | H 1.69 | M 1.69 | N 1.99 | E 2.17
E10: N 2.85 | W 1.87 | K 1.79 | G 1.26 | L 2.49 | R 1.6 | I 1.58 | A 2.48 | F 1.72 | S 1.35 | M 2.26 | P 2.26 | T 2.37 | D 1.71 | C 1.95 | H 2.25 | Y 1.82 | V 2.88 | Q 1.96
T14: A 2 | G 1.69 | E 1.87 | V 1.93 | M 1.85 | L 1.66 | I 1.83 | S 2.14 | W 1.39 | Q 2.08 | H 2 | F 1.83 | R 2.38 | K 1.93 | N 1.91 | Y 1.49 | D 1.71 | P 2.17 | C 2.88
K16: D 1.71 | G 1.32 | A 1.88 | C 2.15 | E 1.73 | F 1.94
L8: I 2.24 | V 2.74 | M 1.88 | P 1.9 | H 2.44 | K 1.97 | G 2.13 | N 1.62 | E 1.85 | F 2.59 | S 1.75 | C 1.71 | D 2.13 | A 1.62 | Y 1.87 | Q 2.01 | R 1.93 | T 2.09 | W 2.06

Variants of: B2
Test: as above
Settings: c terminus: a fixed tail appended

Protein stability index: each site, then its substitutions
G24: C 1.65 | K 2.88 | N 1.85 | W 2.29 | L 2.56 | Q 2.22 | E 2.55 | P 1.68 | S 1.97 | A 1.83 | I 1.74 | Y 1.75 | F 2.92 | T 1.9 | H 2.08 | V 1.84 | D 3.36 | R 2.29 | M 1.63
V23: A 2.29 | H 3.06 | Y 2.39 | D 3.21 | F 1.78 | E 2.81 | K 2.86 | S 2.62 | R 2.81 | C 2.72 | Q 2.36 | M 2.34 | W 2.07 | P 2.77 | N 3.2 | T 2.96 | L 2.67 | I 2.29 | G 2.66
Y22: S 3.4 | P 2.96 | Q 3.12 | V 2.37 | R 3.24 | W 1.67 | T 2.93
